Data published in the supplement of paper PMC10065799, “High-throughput profiling of sequence recognition by tyrosine kinases and SH2 domains using bacterial peptide display” (eLife, 2023).

Experiments:
MERTK = MERTK (UniProt Q12866); test: phosphorylation enrichment, bacterial display (enrichment ratio); higher = better substrate or ligand; peptides without Tyr show the background
FGFR3 = FGFR3 (UniProt P22607); test: as above
EPHB2 = EPHB2 (UniProt P29323); test: as above
c-Src = test: as above
Fer (mouse) = test: as above
EPHB1 = EPHB1 (UniProt P54762); test: as above
c-Abl (mouse) = test: as above
Hck = Hck (UniProt P08631); test: as above
Sequence of Hck (P08631 whole entry, looked up): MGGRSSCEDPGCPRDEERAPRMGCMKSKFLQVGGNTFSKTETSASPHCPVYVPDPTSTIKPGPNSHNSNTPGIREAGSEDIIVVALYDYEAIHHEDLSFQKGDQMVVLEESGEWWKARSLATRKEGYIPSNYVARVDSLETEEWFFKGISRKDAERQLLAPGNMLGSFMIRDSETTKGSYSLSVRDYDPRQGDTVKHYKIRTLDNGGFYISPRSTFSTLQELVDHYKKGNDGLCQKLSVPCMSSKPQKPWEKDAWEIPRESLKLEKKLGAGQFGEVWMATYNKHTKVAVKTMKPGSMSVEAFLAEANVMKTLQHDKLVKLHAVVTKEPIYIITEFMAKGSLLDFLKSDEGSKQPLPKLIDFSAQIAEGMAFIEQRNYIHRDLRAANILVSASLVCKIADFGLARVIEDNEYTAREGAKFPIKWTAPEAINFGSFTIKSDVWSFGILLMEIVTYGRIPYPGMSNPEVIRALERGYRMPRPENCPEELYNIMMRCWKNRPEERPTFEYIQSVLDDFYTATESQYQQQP

AncSZ = test: as above
Fyn = Fyn (UniProt P06241); test: as above
Sequence of Fyn (P06241 whole entry, looked up): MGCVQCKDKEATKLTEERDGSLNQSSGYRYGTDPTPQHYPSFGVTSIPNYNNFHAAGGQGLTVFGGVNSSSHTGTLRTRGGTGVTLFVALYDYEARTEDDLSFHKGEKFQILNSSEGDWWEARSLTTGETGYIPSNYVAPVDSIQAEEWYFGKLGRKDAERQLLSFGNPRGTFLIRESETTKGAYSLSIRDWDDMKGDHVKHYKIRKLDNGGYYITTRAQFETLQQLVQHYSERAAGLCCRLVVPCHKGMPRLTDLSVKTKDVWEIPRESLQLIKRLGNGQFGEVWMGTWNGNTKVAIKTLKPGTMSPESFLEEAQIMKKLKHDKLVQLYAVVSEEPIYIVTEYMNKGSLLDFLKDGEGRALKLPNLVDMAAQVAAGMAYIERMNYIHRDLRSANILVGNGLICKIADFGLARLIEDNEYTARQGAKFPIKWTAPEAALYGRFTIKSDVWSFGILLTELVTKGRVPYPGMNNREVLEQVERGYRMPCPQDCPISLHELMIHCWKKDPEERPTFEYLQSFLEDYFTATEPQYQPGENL

Jak2 = Jak2 (UniProt O60674); test: as above
Sequence of Jak2 (O60674 whole entry, looked up): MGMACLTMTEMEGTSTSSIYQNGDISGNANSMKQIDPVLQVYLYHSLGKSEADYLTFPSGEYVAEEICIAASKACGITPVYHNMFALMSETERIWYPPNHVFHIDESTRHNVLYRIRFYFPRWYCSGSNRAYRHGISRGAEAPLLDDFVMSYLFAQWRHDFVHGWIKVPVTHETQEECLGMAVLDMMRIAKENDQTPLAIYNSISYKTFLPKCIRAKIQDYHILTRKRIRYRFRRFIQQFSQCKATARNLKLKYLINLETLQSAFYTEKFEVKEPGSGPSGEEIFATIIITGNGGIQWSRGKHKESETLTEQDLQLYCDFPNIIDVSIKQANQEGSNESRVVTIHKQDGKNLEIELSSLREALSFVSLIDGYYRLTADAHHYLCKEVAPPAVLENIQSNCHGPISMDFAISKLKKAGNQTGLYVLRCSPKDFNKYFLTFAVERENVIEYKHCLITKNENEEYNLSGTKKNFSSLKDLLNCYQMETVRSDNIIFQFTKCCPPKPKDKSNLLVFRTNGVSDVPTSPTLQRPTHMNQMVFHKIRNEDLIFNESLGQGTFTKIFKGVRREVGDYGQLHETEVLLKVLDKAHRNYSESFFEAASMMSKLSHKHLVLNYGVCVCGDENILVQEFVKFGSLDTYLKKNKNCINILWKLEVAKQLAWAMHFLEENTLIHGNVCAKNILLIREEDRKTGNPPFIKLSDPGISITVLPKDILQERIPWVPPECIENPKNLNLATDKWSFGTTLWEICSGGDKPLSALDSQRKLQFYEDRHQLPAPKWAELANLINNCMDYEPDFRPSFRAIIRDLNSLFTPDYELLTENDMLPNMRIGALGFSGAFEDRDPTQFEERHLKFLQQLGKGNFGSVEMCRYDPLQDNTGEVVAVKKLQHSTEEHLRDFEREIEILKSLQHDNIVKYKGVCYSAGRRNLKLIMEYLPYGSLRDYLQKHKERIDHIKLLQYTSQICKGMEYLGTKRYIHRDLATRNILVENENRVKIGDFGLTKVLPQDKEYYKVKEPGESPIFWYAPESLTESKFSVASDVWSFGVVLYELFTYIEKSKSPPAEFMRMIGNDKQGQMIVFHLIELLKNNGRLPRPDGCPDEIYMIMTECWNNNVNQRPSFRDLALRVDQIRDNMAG

FGFR1 = FGFR1 (UniProt P11362); test: as above
Fes = Fes (UniProt P07332); test: as above
Sequence of Fes (P07332 whole entry, looked up): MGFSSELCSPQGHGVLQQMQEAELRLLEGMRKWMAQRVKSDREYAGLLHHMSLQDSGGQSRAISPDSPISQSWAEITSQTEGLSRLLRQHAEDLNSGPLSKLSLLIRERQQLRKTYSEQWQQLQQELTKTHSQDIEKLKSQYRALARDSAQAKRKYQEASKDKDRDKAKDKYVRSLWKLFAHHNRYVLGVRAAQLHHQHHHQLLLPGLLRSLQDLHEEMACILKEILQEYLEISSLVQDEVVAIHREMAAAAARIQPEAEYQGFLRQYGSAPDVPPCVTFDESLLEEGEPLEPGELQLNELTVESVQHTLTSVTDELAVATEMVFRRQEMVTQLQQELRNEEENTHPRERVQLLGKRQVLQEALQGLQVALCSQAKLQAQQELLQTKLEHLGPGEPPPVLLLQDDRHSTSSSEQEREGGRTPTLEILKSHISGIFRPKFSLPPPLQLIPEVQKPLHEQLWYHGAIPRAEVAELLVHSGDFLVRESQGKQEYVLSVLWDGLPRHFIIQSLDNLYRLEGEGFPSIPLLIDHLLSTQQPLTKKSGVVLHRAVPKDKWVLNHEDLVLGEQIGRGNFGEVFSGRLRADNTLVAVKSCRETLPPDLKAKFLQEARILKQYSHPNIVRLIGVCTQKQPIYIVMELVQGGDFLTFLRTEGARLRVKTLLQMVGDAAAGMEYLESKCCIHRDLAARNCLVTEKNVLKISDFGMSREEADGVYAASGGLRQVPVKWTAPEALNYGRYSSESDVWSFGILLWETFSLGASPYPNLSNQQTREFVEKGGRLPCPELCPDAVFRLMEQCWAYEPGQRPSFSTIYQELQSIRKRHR

SHP2-C SH2 = test: SH2 binding enrichment of the phosphorylated peptide, bacterial display (enrichment ratio); higher = better substrate or ligand; peptides without Tyr show the background
c-Src SH2 = test: as above
Grb2 SH2 = Grb2 SH2 (UniProt P62993); test: as above
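Throughout, for SH2 binding enrichment of the phosphorylated peptide, bacterial display: peptide library displayed on the E. coli surface as eCPX fusions, selected cells deep-sequenced, score is each peptide's frequency after selection divided by its frequency in the input.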
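Throughout, for phosphorylation enrichment, bacterial display: 11-residue human phosphosite peptides and single-mutation variants displayed on the E. coli surface, counted by deep sequencing, each peptide's frequency after selection divided by its frequency in the unselected input library; frequency after pTyr selection over input frequency; kinase dosed for 20-30% of maximal phosphorylation in three min.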

Sequence of EPHB2 (P29323 whole entry, looked up): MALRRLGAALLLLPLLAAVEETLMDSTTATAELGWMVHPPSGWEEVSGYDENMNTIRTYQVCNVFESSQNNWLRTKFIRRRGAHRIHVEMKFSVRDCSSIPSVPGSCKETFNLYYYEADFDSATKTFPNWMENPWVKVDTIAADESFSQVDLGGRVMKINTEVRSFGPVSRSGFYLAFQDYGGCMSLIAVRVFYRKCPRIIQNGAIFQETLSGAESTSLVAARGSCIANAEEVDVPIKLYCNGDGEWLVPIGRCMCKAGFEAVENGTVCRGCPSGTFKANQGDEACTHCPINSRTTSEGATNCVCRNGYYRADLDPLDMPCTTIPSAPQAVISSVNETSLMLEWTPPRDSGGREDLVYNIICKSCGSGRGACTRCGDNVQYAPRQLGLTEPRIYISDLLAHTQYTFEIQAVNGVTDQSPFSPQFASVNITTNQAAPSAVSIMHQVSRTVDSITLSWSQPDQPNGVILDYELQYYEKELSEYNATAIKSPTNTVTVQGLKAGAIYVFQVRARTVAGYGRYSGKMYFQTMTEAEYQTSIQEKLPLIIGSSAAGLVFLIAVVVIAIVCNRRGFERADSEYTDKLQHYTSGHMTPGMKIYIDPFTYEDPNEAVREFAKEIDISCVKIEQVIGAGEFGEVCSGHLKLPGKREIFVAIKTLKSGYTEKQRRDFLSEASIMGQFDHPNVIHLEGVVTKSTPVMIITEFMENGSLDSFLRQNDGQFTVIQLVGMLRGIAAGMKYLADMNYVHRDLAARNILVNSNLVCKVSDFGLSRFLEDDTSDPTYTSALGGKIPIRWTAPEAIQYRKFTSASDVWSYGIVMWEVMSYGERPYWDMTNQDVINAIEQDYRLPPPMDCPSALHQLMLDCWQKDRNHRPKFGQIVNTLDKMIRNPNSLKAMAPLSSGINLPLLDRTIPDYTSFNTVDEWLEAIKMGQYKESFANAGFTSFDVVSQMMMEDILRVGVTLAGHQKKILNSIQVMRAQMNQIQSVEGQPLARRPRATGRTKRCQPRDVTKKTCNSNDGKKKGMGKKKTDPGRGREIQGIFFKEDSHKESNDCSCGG
Sequence of MERTK (Q12866 whole entry, looked up): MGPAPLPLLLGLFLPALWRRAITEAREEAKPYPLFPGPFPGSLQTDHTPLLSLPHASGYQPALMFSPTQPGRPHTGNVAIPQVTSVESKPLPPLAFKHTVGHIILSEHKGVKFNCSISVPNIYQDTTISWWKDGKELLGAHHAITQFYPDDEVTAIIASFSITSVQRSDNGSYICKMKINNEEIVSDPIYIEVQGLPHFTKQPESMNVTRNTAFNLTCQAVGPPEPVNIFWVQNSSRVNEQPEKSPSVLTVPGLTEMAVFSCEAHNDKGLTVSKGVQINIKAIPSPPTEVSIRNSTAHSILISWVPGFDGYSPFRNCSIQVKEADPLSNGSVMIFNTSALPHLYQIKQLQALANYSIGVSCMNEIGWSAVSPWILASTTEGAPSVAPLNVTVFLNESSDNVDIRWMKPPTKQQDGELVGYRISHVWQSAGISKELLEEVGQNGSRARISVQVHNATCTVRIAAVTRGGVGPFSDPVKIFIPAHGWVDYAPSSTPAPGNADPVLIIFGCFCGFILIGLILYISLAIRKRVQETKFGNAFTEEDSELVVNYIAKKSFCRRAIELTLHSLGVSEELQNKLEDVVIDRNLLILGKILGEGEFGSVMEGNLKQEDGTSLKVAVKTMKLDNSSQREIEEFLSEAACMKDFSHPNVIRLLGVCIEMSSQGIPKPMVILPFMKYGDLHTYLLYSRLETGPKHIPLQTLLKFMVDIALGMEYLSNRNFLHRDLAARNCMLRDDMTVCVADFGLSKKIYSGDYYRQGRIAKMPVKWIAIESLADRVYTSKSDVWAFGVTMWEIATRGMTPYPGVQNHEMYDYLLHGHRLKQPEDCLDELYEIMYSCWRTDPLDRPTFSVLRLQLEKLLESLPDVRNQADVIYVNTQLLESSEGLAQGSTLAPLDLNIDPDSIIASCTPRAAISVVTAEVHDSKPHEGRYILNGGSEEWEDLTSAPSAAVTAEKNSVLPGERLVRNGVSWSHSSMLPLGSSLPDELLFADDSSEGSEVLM

Sequence	phosphorylation enrichment (MERTK)	phosphorylation enrichment (FGFR3)	phosphorylation enrichment (EPHB2)	phosphorylation enrichment (c-Src)	phosphorylation enrichment (Fer (mouse))	phosphorylation enrichment (EPHB1)	phosphorylation enrichment (c-Abl (mouse))	phosphorylation enrichment (Hck)	phosphorylation enrichment (AncSZ)	phosphorylation enrichment (Fyn)	phosphorylation enrichment (Jak2)	phosphorylation enrichment (FGFR1)	phosphorylation enrichment (Fes)	SH2 binding enrichment (SHP2-C SH2)	SH2 binding enrichment (c-Src SH2)	SH2 binding enrichment (Grb2 SH2)
SVAVPYEPPEV [TP53_Y220_V217A]	0.493	0.944	0.626	0.551	0.529	0.614	0.823	0.565	1.31	0.486	1.1	0.595	1.31	0.719	0.728	1.05
SLEKSYELLDG [ACTB_Y240_P243L]	0.555	0.963	0.584	0.52	0.705	0.575	0.956	0.595	1.16	0.533	1.25	0.508	1.16	0.729	4.69	1.01
CTSIHYNFMCN [TP53_Y234_T231S_YF]	0.366	0.571	0.502	0.447	0.519	0.54	0.694	0.473	0.848	0.516	1	0.488	0.918	1.59	2.05	1.57
KCCCIYEKPRA [PPP1R11_Y64]	1.65	0.814	1.06	3.6	8.2	1.07	7.54	2.67	2.23	1.95	1.34	0.523	1.46	0.705	0.478	0.879
QTENKYDSVSG [EIF2AK3_Y565]	0.615	0.64	0.561	0.467	0.384	0.407	0.56	0.783	0.865	0.604	1.98	0.912	1.13	0.724	7.1	0.839
AGLVQYFMEHH [PTPN11_Y80_E76G_YF]	0.456	0.782	0.592	0.452	0.474	0.655	0.741	0.565	0.955	0.513	0.962	0.538	1.12	0.845	0.599	0.844
RQNNSYTCFTA [SLC20A2_Y386_R382Q_YF]	0.938	0.904	0.658	0.712	0.751	0.819	0.802	0.544	1.04	0.537	0.951	0.663	0.898	0.998	0.923	0.85
NSVLVYRNGDP [DCDC2_Y22_K17N]	0.454	0.533	0.463	0.591	0.373	0.532	0.534	0.492	0.621	0.443	0.627	0.393	0.678	0.614	0.401	0.773
CNTIHYNFMCN [TP53_Y234_T230N_YF]	0.357	0.515	0.4	0.498	0.483	0.438	0.601	0.531	0.787	0.419	0.636	0.513	0.822	1.27	2.09	1.41
WDLSEYSFKDP [ITGA3_Y237_YF]	0.445	0.885	0.618	2.11	0.556	0.682	0.853	0.985	2.14	2.17	1.21	0.625	1.23	1.29	0.661	0.916
KEAALYPHLPP [SQSTM1_Y383]	0.391	0.649	0.373	0.48	0.42	0.414	0.669	0.362	0.67	0.391	1.04	0.459	0.796	0.708	0.474	0.763
NDDDVYRSLEE [VAV2_Y142]	0.524	0.793	0.722	0.584	0.526	0.6	0.898	0.665	1.19	0.53	1.24	0.608	1.23	0.748	0.606	1
LKEIRYPPYTD [ALDH3B2_Y362_H361R]	0.518	0.702	0.589	0.494	0.541	0.348	0.749	0.678	0.761	0.31	0.827	0.539	1.06	0.729	0.555	0.883
TLQNMYGCDVG [HLA-B_Y123_S121N]	0.446	0.669	0.581	0.601	0.64	0.702	0.756	0.625	0.886	0.586	0.989	0.545	1.2	0.765	0.643	1.01
RLAKRYLIWEC [SCN5A_Y694_Q692K]	0.503	0.812	0.604	0.486	0.626	0.607	0.771	0.505	1.15	0.375	0.852	0.64	1.06	0.654	0.704	0.911
DPLLTYLFPPK [LMNA_Y481_R482L]	0.772	2.62	0.781	3.12	0.481	0.992	0.836	0.87	2.2	1.8	2.79	4.35	1.08	1.19	0.574	0.991
FKDYFYCWNTS [AICDA_Y146_F151S]	2.14	9.31	2.58	0.885	1.03	5.4	0.973	0.599	2.62	0.618	3.67	11.2	1.44	0.542	0.375	0.73

Sequence	phosphorylation enrichment (MERTK)	phosphorylation enrichment (FGFR3)	phosphorylation enrichment (EPHB2)	phosphorylation enrichment (c-Src)	phosphorylation enrichment (Fer (mouse))	phosphorylation enrichment (EPHB1)	phosphorylation enrichment (c-Abl (mouse))	phosphorylation enrichment (Hck)	phosphorylation enrichment (AncSZ)	phosphorylation enrichment (Fyn)	phosphorylation enrichment (Jak2)	phosphorylation enrichment (FGFR1)	phosphorylation enrichment (Fes)	SH2 binding enrichment (SHP2-C SH2)	SH2 binding enrichment (c-Src SH2)	SH2 binding enrichment (Grb2 SH2)
EILLSYLRTGY [TGM1_Y365]	0.413	0.749	0.612	0.462	0.548	0.544	0.922	0.536	1.06	0.524	1.4	0.559	1.1	1.14	0.845	1.17
QMRLKYSQSDL [SMC1A_Y714]	0.296	0.453	0.476	0.481	0.365	0.335	0.632	0.369	0.704	0.251	0.611	0.437	0.863	0.703	0.597	0.871
GGPTYYIDTNA [ACTL6A_Y69]	1.08	0.963	0.514	0.778	0.407	0.698	0.555	0.899	0.885	0.926	0.727	1.09	0.893	0.694	0.679	0.822
TDTAAYEERLR [SPTB_Y474_V478L]	0.482	0.71	0.648	0.478	0.458	0.49	0.48	0.516	0.936	0.67	0.742	0.668	0.914	0.924	0.504	0.849
SRDTRYLVLAV [AMH_Y195]	0.487	0.683	0.559	0.514	0.552	0.636	0.739	0.476	0.93	0.492	0.909	0.543	1.1	2.34	0.811	1.13
RRGMPYGGLGD [TGM1_Y312_R315L]	1.02	0.443	0.536	0.398	0.456	0.302	0.66	0.391	0.618	0.503	0.352	0.445	0.663	0.501	0.33	0.712
KVVNEYVTKGQ [MYH7_Y410_G407V]	0.375	0.489	0.451	0.433	0.393	0.358	0.513	0.402	0.806	0.36	0.53	0.431	0.601	0.798	0.369	0.857
SPPEVYAIMRG [NTRK1_Y757_C752S]	1.82	0.524	0.641	2.64	0.525	1.12	0.609	2.91	0.99	1.63	0.718	0.506	0.808	1.16	0.611	0.711
FSNKLYFQLEQ [PDPR_Y109_YF]	1.64	2.7	0.664	0.621	0.661	0.849	0.796	0.694	1.35	0.636	1.49	3.05	1.19	0.562	0.523	0.626
EILLSYPRTGF [TGM1_Y365_L366P_YF]	0.411	0.555	0.533	0.356	0.397	0.562	0.515	0.534	0.695	0.541	0.872	0.488	0.935	0.83	0.528	0.821
SLIDGYYRLTA [JAK2_Y372]	0.436	1.69	0.495	0.451	0.427	0.457	0.522	0.475	0.92	0.467	7.08	2.49	0.926	6.44	2.57	0.986
QEIATYRRLQE [KRT14_Y415_L419Q]	0.7	0.512	0.721	0.717	0.506	0.568	1.1	0.482	0.926	0.578	1.51	0.699	0.803	1.21	0.475	0.702
WSQAMYPDLGP [STARD8_Y330_R327Q]	0.393	0.583	0.636	0.47	0.475	0.476	0.648	0.486	1.06	0.47	0.765	0.493	0.921	0.766	0.774	1.07
PAIERYVVVCK [RHO_Y136_L131P]	0.374	0.851	0.846	0.474	0.473	0.896	0.928	0.551	1.08	0.612	1.08	0.505	1.41	0.751	0.686	0.857
SISLKYEGRVY [ABL1_Y167_R166K]	0.451	0.897	0.747	0.511	0.499	0.663	0.983	0.507	1.13	0.47	1.24	0.51	1.38	0.66	0.388	0.814
FIRKDYEACKA [BBS4_Y48_YF]	0.334	0.592	0.516	0.479	0.49	0.651	0.726	0.396	0.642	0.445	0.741	0.502	0.865	0.731	0.792	1.07
